We go through one substance from patent US20210115098A1.

The target of the assay is activin-like kinase 4 and/or 5 receptor (ALK4/5). Description: cell-based or functional assay.

“Cumulin-like GDF9_H369N (Mutant 7) (from UniProt O60383 30-318) (ligand)” registered a Smad-2/3 responsive luciferase reporter, maximal response at 50 ng/mL relative to Mutant 1 of 10 % reduction.
